Experimental data published in US20220047716A1, “COMBINATION THERAPIES WITH ANTI-FOLATE RECEPTOR ANTIBODY CONJUGATES” (SUTRO BIOPHARMA, INC., priority 2018, published 2022).

Biological target: human folate receptor alpha (hFolRα) on cells (human) (UniProt P15328)
Test: cell-based or functional assay

Chain of human folate receptor alpha (hFolRα) on cells (human) (P15328 25-234 limits assumed): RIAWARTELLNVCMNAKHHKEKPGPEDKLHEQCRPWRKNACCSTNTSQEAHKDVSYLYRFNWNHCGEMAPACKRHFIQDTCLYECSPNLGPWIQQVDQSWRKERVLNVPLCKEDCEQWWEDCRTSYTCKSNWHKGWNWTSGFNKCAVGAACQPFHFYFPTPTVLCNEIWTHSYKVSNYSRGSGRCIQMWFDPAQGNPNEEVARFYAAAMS

For “ADC Molecule 21 (IMGN853 surrogate, Mov19-sulfo-SPDB-DM4) (antibody)”, the fold shift of cell killing EC50 on Igrov1 cells on addition of naked antibody was 3 fold.
